For assay [1], the target named is T1, human P-cadherin on the surface of cells (human, UniProt P22223 108-829). The assay can be described thus: cell-based or functional assay.
In assay [2] the target is T1, human P-cadherin on the surface of cells. The assay can be described thus: epitope competition on A431 cells; competitor: biotinylated 129-1c4 IgG, DELFIA.
For assay [3] the target is unchanged. The assay can be described thus: cell-based or functional assay. The source holds these as a separate data set.
Assay [4] has the same target. Kind of assay: cell-based or functional assay. The source holds these as a separate data set.
Assay [5] has the same target. The assay can be described thus: epitope competition on A431 cells; competitor: biotinylated 129-1c4 IgG at 3x KD, DELFIA.
In assay [6] the target is T2, recombinant human E-cadherin (R&D Systems 648-EC-100) (human, UniProt P12830 155-707).
T2 construct: Bought protein
T2 sequence (looked up): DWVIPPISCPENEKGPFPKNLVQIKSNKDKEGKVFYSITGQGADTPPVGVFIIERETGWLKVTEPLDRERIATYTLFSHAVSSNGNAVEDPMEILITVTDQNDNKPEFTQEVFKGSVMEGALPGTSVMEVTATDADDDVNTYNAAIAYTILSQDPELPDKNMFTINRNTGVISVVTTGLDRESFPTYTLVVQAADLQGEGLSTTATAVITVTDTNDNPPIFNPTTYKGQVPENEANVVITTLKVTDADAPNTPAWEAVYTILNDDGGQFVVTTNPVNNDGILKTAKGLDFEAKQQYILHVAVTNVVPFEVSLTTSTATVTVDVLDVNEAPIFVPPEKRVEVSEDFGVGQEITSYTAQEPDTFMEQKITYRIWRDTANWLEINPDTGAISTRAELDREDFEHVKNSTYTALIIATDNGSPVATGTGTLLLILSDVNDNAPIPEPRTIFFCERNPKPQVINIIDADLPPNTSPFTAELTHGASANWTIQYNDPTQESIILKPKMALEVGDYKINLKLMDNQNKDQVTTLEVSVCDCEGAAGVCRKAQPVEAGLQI
The assay can be described thus: ELISA on coated antigen, relative KD.

Assay [7] deals with T3, Recombinant human P-cadherin Fc (R&D Systems 861-PC-100) (human, UniProt P22223 108-654).
T3 construct: also called recombinant human P-cadherin/Fc fusion protein; hCad/Fc; not shown: Fc part of the bought fusion protein
Kind of assay: ELISA on coated antigen, relative KD. (In general: An ELISA detects its analyte on a solid surface through an enzyme-linked reagent.)

The target of assay [8] is T3, Recombinant human P-cadherin Fc (R&D …). The assay can be described thus: ELISA; KD on E-cadherin over KD on P-cadherin.
Assay [9] has as its target T1, human P-cadherin on the surface of cells. Kind of assay: cell-based or functional assay. The source holds these as a separate data set.
For assay [10], the target named is T4, mouse P-cadherin/Fc fusion protein (mouse, UniProt P10287 100-647, limits assumed).
T4 construct: also called mCad/Fc; not shown: Fc part of the fusion protein
T4 sequence (looked up): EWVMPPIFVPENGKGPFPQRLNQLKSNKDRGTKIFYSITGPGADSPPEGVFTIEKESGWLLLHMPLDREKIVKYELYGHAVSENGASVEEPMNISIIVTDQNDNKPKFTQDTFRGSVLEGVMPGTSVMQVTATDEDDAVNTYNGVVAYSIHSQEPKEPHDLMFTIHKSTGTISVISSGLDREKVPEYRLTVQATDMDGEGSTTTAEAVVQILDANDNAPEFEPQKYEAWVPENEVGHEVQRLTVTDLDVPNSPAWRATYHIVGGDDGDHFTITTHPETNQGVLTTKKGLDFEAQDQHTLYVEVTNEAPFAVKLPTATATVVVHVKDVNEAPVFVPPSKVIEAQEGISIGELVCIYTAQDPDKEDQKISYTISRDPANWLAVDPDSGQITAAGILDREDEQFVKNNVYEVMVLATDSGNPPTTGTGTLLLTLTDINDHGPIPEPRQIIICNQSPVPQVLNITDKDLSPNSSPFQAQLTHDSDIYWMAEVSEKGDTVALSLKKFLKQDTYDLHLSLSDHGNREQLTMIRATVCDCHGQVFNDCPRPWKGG
Kind of assay: SPR (BIACORE 3000), mCad/Fc immobilised, scFv as analyte, 1:1 fit.

Assay [11] addresses T3, Recombinant human P-cadherin Fc (R&D …). Kind of assay: SPR (BIACORE 3000), hCad/Fc immobilised, scFv as analyte, 1:1 fit. (In SPR one partner is held on a chip, and binding of the other changes the refractive index at the surface.)
The target of assay [12] is T2, recombinant human E-cadherin (R&D …). The assay can be described thus: ELISA on coated E-cadherin, IgG titrated from 50 nM down to 0.64 nM.

Numbering of substitutions follows the chain as printed.

What is called IC50 is the concentration needed to halve the response being measured. High values mean a need for much substance, low ones inhibition by little substance. In general, Kd refers to the free concentration of one partner at which half of the binding sites on the other are occupied at equilibrium, for simple one-to-one binding. What is called koff is the first-order rate constant of dissociation.

B1: 129-1c4 (antibody, V domains shown)
VH: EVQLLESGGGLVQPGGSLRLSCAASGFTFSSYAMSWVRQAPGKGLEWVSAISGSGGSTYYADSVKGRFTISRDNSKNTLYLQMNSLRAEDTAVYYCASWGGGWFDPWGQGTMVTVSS
VL: QSALTQPASVSGSPGQSITISCTGTSNDVGAYNYVSWYQQHPGKAPKLILSEVNKRPSGVSNRFSGSKSGNTASLSISGLQAEDEADYYCSSFTSGSTFMLFGGGTKLTVL
notes: also called parent IgG
In the case of B1, in assay [1], the “SW480 Spheroid Disruption Assay, Fold Increased Disruption vs Control at 5 nM” value worked out at 4 fold. The same molecule registered a half-maximal inhibitory concentration (IC50) in assay [2] of 29 nM. In assay [3], the “IC50 in the A431 adhesion assay” value lay within 1000 to 3000 nM. Besides, the “SW480 Aggregation Assay Mean IC50” value in assay [4] was found to be 35 nM.

B2: scFv variant of 129-1c4 with VH CDR3 SEQ ID NO: 207 and VL CDR3 SEQ ID NO: 291 (scFv, V domains shown)
VH: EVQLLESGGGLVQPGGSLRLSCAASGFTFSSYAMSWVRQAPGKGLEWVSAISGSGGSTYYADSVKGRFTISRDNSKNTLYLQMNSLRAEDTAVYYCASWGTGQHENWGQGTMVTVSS
VL: B1 VL with M100N
notes: His-tagged purified scFv; also called 207 / 291
As to B2, the IC50 in assay [5] is 2.73 nM. This lies in the single-digit nanomolar range.

B3: g-194-b09 (antibody, V domains shown)
VH: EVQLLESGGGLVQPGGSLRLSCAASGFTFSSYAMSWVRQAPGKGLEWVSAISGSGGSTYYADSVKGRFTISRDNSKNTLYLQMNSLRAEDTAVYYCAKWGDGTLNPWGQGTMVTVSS
VL: B1 VL with I49M, L50I, S76T, S97L, T98P, F99W, M100V, L101V
notes: Tested as IgG
B3: the Kd in assay [6] came to 2.16 nM; in [7] it was 0.788 nM. The “KD(E)/KD(P)” value in assay [8] is 3. Moreover, in [9], the “A431 Adhesion Assay Mean IC50 (nM) (n = 2)” value was 0.77 nM. Further, in assay [1], the “SW480 Spheroid Disruption Assay, Fold Increased Disruption vs Control at 5 nM” value was 10 fold. Also, the “SW480 Aggregation Assay Mean IC50” value in [4] stood at 0.9 nM.

B4: 194-b09 scFv (scFv, V domains shown)
VH: not shown
VL: B1 VL with S97L, T98P, F99W, M100V, L101V
notes: Single chain Fv in the assay
With B4, the dissociation constant Kd in [10] turned out to be 11 nM.

B5: 196-g03 scFv (scFv, V domains shown)
VH: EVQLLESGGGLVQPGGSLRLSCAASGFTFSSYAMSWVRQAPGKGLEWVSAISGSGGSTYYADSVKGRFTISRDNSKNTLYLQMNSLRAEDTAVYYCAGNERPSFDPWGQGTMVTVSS
VL: B1 VL with S91T, F93Y, S95M
notes: Single chain Fv in the assay
On to B5, for which, in assay [11], the Kd stood at 1.1 nM and the koff amounted to 0.0007 s⁻¹. In assay [10], this molecule displayed an equilibrium dissociation constant (Kd) of 0.76 nM and an off-rate (koff) of 0.00047 s⁻¹.

B6: 194-g09 scFv (scFv, V domains shown)
VH: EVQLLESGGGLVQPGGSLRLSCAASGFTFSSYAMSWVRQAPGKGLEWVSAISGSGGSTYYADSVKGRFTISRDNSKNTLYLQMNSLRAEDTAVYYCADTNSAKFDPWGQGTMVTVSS
VL: B1 VL with Q40R, D87E, F93Y, S95M
notes: Single chain Fv in the assay
Consider B6, for which, in assay [11], the Kd is 2.6 nM and the koff was determined as 0.0016 s⁻¹. Besides, in assay [10], the equilibrium dissociation constant (Kd) was 1.8 nM and the koff is 0.00081 s⁻¹.

B7: g-194-g09 (antibody, V domains shown)
VH: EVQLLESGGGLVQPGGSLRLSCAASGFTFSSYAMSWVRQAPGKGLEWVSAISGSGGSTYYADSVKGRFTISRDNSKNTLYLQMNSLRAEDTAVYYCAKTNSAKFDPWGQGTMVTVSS
VL: B1 VL with I49M, L50I, S76T, F93Y, S95M
notes: Tested as IgG; also called germlined version of 194-g09
Turning to B7, in assay [7], the Kd is 2.6 nM. For the same molecule, the “KD(E)/KD(P)” value in [8] was over 100. Further, the binding result in assay [12] was “no binding (tested: 50 nM)”. In addition, the “A431 Adhesion Assay Mean IC50 (nM) (n = 2)” value in [9] worked out at 1 nM. Also, in assay [1], the “SW480 Spheroid Disruption Assay, Fold Increased Disruption vs Control at 5 nM” value is 14 fold. For the same molecule, the “SW480 Aggregation Assay Mean IC50” value in [4] was found to be 2.6 nM.

B8: scFv variant of 129-1c4 with VH CDR3 SEQ ID NO: 163 and VL CDR3 SEQ ID NO: 43 (scFv, V domains shown)
VH: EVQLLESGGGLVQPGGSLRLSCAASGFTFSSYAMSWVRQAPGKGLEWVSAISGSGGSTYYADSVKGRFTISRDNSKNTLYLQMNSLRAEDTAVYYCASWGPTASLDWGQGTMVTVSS
VL: B1 VL with S91T, F93Y, S95M
notes: His-tagged purified scFv; also called 163 / 43
In turn, B8 came in with a concentration for half-maximal inhibition (IC50) in assay [5] of 2.45 nM.

These data come from patent US20060240001A1 (AGOURON PHARMACEUTICALS, published 2006).
